In patent US20200270588A1, “GLUCOSYL TRANSFERASE POLYPEPTIDES AND METHODS OF USE” (Syngenta Participations AG, priority 2017, published 2020):
Changes are numbered by the printed parent chain. Names and notes keep the numbering of the source.

B1: L143F (protein)
chain: MASSRTGAGAGGRVVVFPFPFQGHFNPVMRLARALHARGLAITVFHSGALDPADYPADYRFVPVTVEADPKLLASEDIAAIVTTLNASCDAPFRARLSALLAAEGRDSVRCVFTDVSWNAVLTASSDLGVPALGMMTASAASFRDYMAYRTLIDKGYLPVKEERKEDPVPELPPYLVKDLLRVDTSDLEEFAELLARTVTAARRASGLIFNTFPLIETDTLAEIHKALSVPVFAVAPLNKLVPTATASLHGVVQADRGCLQWLDTQQPGSVLYVSFGSMAAMDPHEFVELAWGLADSKRPFVWVVRPNLIRGFESGALPDGVEDEVRGRGIVVAWAPQEEVLAHPAVGGFLTHNGWNSTVEAISEGVPMVCCPRHGDQFGNMRYVCDVWKVGTELVGEQLERGQVKAAIDRLFGTKEGEEIKERMKEFKIAAAKGIGIGVDVDETASPRTDLTDLVDLIKSF
modifications: Zea mays
B2: M136F (protein)
chain: B1 chain with M136F, F143L
modifications: Zea mays
B3: A334P (protein)
chain: B1 chain with F143L, A334P
modifications: Zea mays
B4: L143W (protein)
chain: B1 chain with F143W
modifications: Zea mays
B5: C372L (protein)
chain: B1 chain with F143L, C372L
modifications: Zea mays
B6: A334I (protein)
chain: B1 chain with F143L, A334I
modifications: Zea mays
B7: S117I: bx9 SEQ ID NO:1 mutant (protein)
chain: B1 chain with S117I, F143L
modifications: Zea mays
B8: S117V: bx9 SEQ ID NO:1 mutant (protein)
chain: B1 chain with S117V, F143L
modifications: Zea mays
B9: H24A (protein)
chain: B1 chain with H24A, F143L
modifications: Zea mays
B10: S364L: additional mutation in SEQ ID No: 17 (protein)
chain: B1 chain with S117V, F143L, M279F, A334K, S364L
modifications: Mutated Zea mays Bx9 protein sequence
B11: S75K: additional mutation in SEQ ID No: 17 (protein)
chain: B1 chain with S75K, S117V, F143L, M279F, A334K
modifications: Mutated Zea mays Bx9 protein sequence
B12: R449C: additional mutation in SEQ ID No: 17 (protein)
chain: B1 chain with S117V, F143L, M279F, A334K, R449C
modifications: Mutated Zea mays Bx9 protein sequence
B13: V360M: additional mutation in SEQ ID No: 17 (protein)
chain: B1 chain with S117V, F143L, M279F, A334K, V360M
modifications: Mutated Zea mays Bx9 protein sequence
B14: A236G: additional mutation in SEQ ID No: 17 (protein)
chain: B1 chain with S117V, F143L, A236G, M279F, A334K
modifications: Mutated Zea mays Bx9 protein sequence
B15: H375Y: additional mutation in SEQ ID No: 17 (protein)
chain: B1 chain with S117V, F143L, M279F, A334K, H375Y
modifications: Mutated Zea mays Bx9 protein sequence
B16: G366H: additional mutation in SEQ ID No: 17 (protein)
chain: B1 chain with S117V, F143L, M279F, A334K, G366H
modifications: Mutated Zea mays Bx9 protein sequence
B17: A433V: additional mutation in SEQ ID No: 17 (protein)
chain: B1 chain with S117V, F143L, M279F, A334K, A433V
modifications: Mutated Zea mays Bx9 protein sequence

Assay: UDP luminescence plate assay of E. coli extracts, mutants of SEQ ID No: 1, 2 mM metribuzin
Assay type: biochemical, Zea mays
Conditions: 2 mM metribuzin vs DMSO control, same mutant
Protocol: Optionally plate assays are stopped with brief heating to 95 C before returning to ice and addition of UDP-Glo detection reagent followed by incubation at lab temperature. […] In addition a UDP standard curve is run alongside each set of plate tests.
Assays were carried out on extracts of E. coli BL21 DE3 expressing the various C-terminally his-tagged library variants of SEQ ID NO:1 at the amino acid positions listed in Table 11 as described in Example 2 except, in this case, with 2 mM metribuzin in place of herbicide V.
Thus the ratio of the metribuzin to DMSO signal as well as the increase in signal relative to the w/t bx9 is used to help distinguish those mutations most likely to offer the highest activity to metribuzin. A follow up assay monitored by, for example, LC MS is one method to distinguish these cases more quantitatively.
With B1 the “RATIO of the metribuzin signal to the DMSO signal” value (shortened to “RATIO of the metribuzin signal”) was 1.09. In the case of B2, the “RATIO of the metribuzin signal” value is reported as 1.00. In the case of B3, the “RATIO of the metribuzin signal” value is reported as 0.88. In the case of B4, the “RATIO of the metribuzin signal” value is reported as 1.12. For B5, the “RATIO of the metribuzin signal” value was 1.06. With B6 the “RATIO of the metribuzin signal” value was 0.89.

Same assay, conditions: 2 mM metribuzin; relative to bx9 w/t
With B7 the “SIGNAL: metribuzin signal of mutant divided by the signal of w/t bx9” value was 1.99. For B1, the “SIGNAL: metribuzin signal of mutant divided by the signal of w/t bx9” value was 1.23. For B2, the “SIGNAL: metribuzin signal of mutant divided by the signal of w/t bx9” value was 0.93. In the case of B3, the “SIGNAL: metribuzin signal of mutant divided by the signal of w/t bx9” value is reported as 1.24. With B4 the “SIGNAL: metribuzin signal of mutant divided by the signal of w/t bx9” value was 0.97. With B5 the “SIGNAL: metribuzin signal of mutant divided by the signal of w/t bx9” value was 1.22. In the case of B6, the “SIGNAL: metribuzin signal of mutant divided by the signal of w/t bx9” value is reported as 1.05. In the case of B8, the “SIGNAL: metribuzin signal of mutant divided by the signal of w/t bx9” value is reported as 1.18.

Same assay, conditions: mutants of SEQ ID No: 1; DMSO in place of metribuzin (background UDP-glucose hydrolysis)
For B7, the “luminescence signal in the DMSO control” value was 5.14E+05. For B1, the “luminescence signal in the DMSO control” value was 3.18E+05. With B2 the “luminescence signal in the DMSO control” value was 2.57E+05. With B3 the “luminescence signal in the DMSO control” value was 3.97E+05. With B4 the “luminescence signal in the DMSO control” value was 2.42E+05. With B9 the “luminescence signal in the DMSO control” value was 2.60E+05. With B5 the “luminescence signal in the DMSO control” value was 3.22E+05. In the case of B6, the “luminescence signal in the DMSO control” value is reported as 3.29E+05. With B8 the “luminescence signal in the DMSO control” value was 3.38E+05.

Same assay, conditions: mutants of SEQ ID No: 1 in E. coli extracts; 2 mM metribuzin; UDP luminescence
With B7 the “luminescence signal observed with 2 mM metribuzin” value (from here on “luminescence signal observed”) was 5.56E+05. For B1, the “luminescence signal observed” value was 3.45E+05. With B2 the “luminescence signal observed” value was 2.59E+05. For B3, the “luminescence signal observed” value was 3.48E+05. With B4 the “luminescence signal observed” value was 2.72E+05. For B9, the “luminescence signal observed” value was 2.39E+05. In the case of B5, the “luminescence signal observed” value is reported as 3.41E+05. In the case of B6, the “luminescence signal observed” value is reported as 2.94E+05. For B8, the “luminescence signal observed” value was 3.30E+05.

Assay: UDP luminescence plate assay of E. coli extracts, mutants within SEQ ID No: 17, 2 mM metribuzin
Assay type: biochemical, Zea mays
Conditions: 2 mM metribuzin vs DMSO control, same mutant
Protocol: Activities observed with metribuzin were generally lower in magnitude than seen with herbicide V in the previous examples. For example, in one plate assay run with 2 mM metribuzin using 5 ul of diluted extract of plate-grown BL21DE3 cells expressing w/t bx9 and assayed for 40 minutes (as described in Example 2) the UDP-Glo luminescence signal was ˜3.4 E6 as compared with ˜2.3E6 in the DMSO control and ˜1.7E6 in the H24A null mutant control. […] It was therefore important to assess potential improvements in the metribuzin activity of the various mutants relative to the wild type bx9 enzyme based not only on the H24A null activity control but also based upon controls with DMSO in place of metribuzin acceptor substrate. In some plate assays (using more dilute extracts) the metribuzin signals from the w/t enzyme was the same or barely greater than the DMSO control. Additionally, some mutations gave an increase in the ‘background’ UDP-glucose hydrolysis activity with just DMSO present that was the same or similar to the magnitude of the increase in signal seen with metribuzin. In these instances it is therefore uncertain from just this UDP-Glo assay method whether the specific metribuzin signal (glucosylation of metribuzin) is improved or not i.e. the signal seen with metribuzin may or may not all or to a large part be attributable to increased background hydrolysis). […] Thus the ratio of the metribuzin to DMSO signal as well as the increase in signal relative to the w/t bx9 is used to help distinguish those mutations most likely to offer the highest activity to metribuzin. A follow up assay monitored by, for example, LC MS is one method to distinguish these cases more quantitatively. The tables below summarise the results from two different sets of luminescence plate assays to detect single mutations giving improvements in the magnitude of the signal with metribuzin relative to w/t bx9 and/or the apparent specificity for metribuzin as measured by the deviation of the ratio of metribuzin to DMSO control activity from the bx9 w/t value of around unity.
A further separate screen was carried out to explore a library of additional mutations at various positions within the context of SEQ ID No: 17 for improved metribuzin activity. These were assayed, assessed and scored as above. […] These were S75K (2.5)(1.25), A236G (4.0)(1.15), A433V (3.3)(9.0) and R449C (1.8)(1.2).
A yet further and more comprehensive screen was carried out to explore saturation mutagenesis at all remaining amino acid positions within the context of SEQ ID No:17 for improved metribuzin activity. Again these were assayed, assessed and scored as above and the results of (out of the thousands screened) of the subset that were of interest are summarized in Table 16.
For B10, the “RATIO of the metribuzin signal” value was 1.19.

Same assay, conditions: 2 mM metribuzin; additional mutation in SEQ ID No: 17
With B11 the “metribuzin signal relative to the SEQ ID No:17 control (first parentheses)” value was 2.5 and the “ratio of metribuzin to DMSO signal (second parentheses)” value (shortened to “ratio of metribuzin to DMSO signal”) was 1.25. With B10 the “metribuzin signal relative to the SEQ ID No:17 control (first parentheses)” value was 3.3 and the “ratio of metribuzin to DMSO signal” value was 1.20. With B12 the “metribuzin signal relative to the SEQ ID No:17 control (first parentheses)” value was 1.8 and the “ratio of metribuzin to DMSO signal” value was 1.2. With B13 the “metribuzin signal relative to the SEQ ID No:17 control (first parentheses)” value was 2.0 and the “ratio of metribuzin to DMSO signal” value was 1.28. For B14, the “metribuzin signal relative to the SEQ ID No:17 control (first parentheses)” value was 4.0 and the “ratio of metribuzin to DMSO signal” value was 1.15. In the case of B15, the “metribuzin signal relative to the SEQ ID No:17 control (first parentheses)” value is reported as 3.8 and the “ratio of metribuzin to DMSO signal” value is reported as 2.33. For B16, the “metribuzin signal relative to the SEQ ID No:17 control (first parentheses)” value was 3.4 and the “ratio of metribuzin to DMSO signal” value was 1.34. For B17, the “metribuzin signal relative to the SEQ ID No:17 control (first parentheses)” value was 3.3 and the “ratio of metribuzin to DMSO signal” value was 9.0.

Same assay, conditions: 2 mM metribuzin; relative to SEQ ID No: 17 control
In the case of B10, the “SIGNAL: metribuzin signal of mutant divided by the signal of the SEQ ID No. 17 control” value is reported as 3.29. For B13, the “SIGNAL: metribuzin signal of mutant divided by the signal of the SEQ ID No. 17 control” value was 2.02. For B15, the “SIGNAL: metribuzin signal of mutant divided by the signal of the SEQ ID No. 17 control” value was 3.80. In the case of B16, the “SIGNAL: metribuzin signal of mutant divided by the signal of the SEQ ID No. 17 control” value is reported as 3.38.

Same assay, conditions: additional mutations within SEQ ID No: 17; DMSO in place of metribuzin
In the case of B10, the “luminescence signal in the DMSO control” value is reported as 5.04E+06. For B13, the “luminescence signal in the DMSO control” value was 2.88E+06. For B15, the “luminescence signal in the DMSO control” value was 2.97E+06. For B16, the “luminescence signal in the DMSO control” value was 4.62E+06.

Same assay, conditions: additional mutations within SEQ ID No: 17; control = SEQ ID No: 17; 2 mM metribuzin
For B10, the “luminescence signal observed” value was 6.00E+06. In the case of B13, the “luminescence signal observed” value is reported as 3.68E+06. With B15 the “luminescence signal observed” value was 6.93E+06. In the case of B16, the “luminescence signal observed” value is reported as 6.17E+06.
